Measurements reported in article PMC5440646, “T Cell Costimulation by CD6 Is Dependent on Bivalent Binding of a GADS/SLP-76 Complex” (Molecular and Cellular Biology, 2017).
Where no end group is shown, it is not given here. [ ]: non-standard residue; d: D form. The star is where a group is joined. Biotin = O=C1N[C@H]2[C@H](CS[C@H]2CCCCC(=O)*)N1; pY = N[C@@H](Cc1ccc(OP(=O)(O)O)cc1)C(=O)O

T1: GADS SH2 domain, His-tagged (UniProt O75791 58-149)
T1 construct: GRB2-related adaptor downstream of Shc (GADS), SH2 domain; In the popinF vector, provided by the Oxford Protein Production Facility
T1 sequence (looked up): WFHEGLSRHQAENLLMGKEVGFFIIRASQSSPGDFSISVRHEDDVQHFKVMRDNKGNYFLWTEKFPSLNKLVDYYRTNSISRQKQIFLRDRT


Tests used:
Assay in all cases: SPR; biotinylated short peptides immobilised at ~25 response units on streptavidin-coated CM5 chips, BIAcore 3000; SH2 domains injected at 10 μl/min at 37°C; equilibrium binding, 1:1 Langmuir
Conditions in all cases: both partners purified
[1] = target: T2, GRB2 SH2 domain, His-tagged (UniProt P62993 60-152)
T2 construct: In the popinF vector

[2] = target: T3, TSAd SH2 domain, His-tagged (UniProt Q9NP31 95-186)
T3 construct: T cell-specific adaptor protein (TSAd, SH2D2A), SH2 domain; In the popinF vector

[3] = target: T1, GADS SH2 domain, His-tagged

T3 sequence (Q9NP31 95-186): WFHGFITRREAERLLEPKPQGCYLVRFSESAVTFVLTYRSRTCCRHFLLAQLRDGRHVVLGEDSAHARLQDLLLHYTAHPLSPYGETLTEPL
T2 sequence (P62993 60-152): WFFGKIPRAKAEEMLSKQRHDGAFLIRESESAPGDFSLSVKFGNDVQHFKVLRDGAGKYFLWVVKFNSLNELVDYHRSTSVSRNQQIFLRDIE

Kd [1] [nM] | Kd [2] [nM] | Kd [3] [nM] | Binder
3000 | 74000 | 2000 to 3000 | Biotin-LLHSD[pY]MNMTP (CD28-derived peptide containing the YXN motif; also called phosphorylated CD28-derived peptide; source: synthetic peptide (Peptide Protein Research Ltd.)) [CD28 pYMNM peptide (biotin-LLHSDpYMNMTP)]
2000 to 4000 | 26000 to 58000 | 1000 to 3000 | Biotin-SSGEW[pY]QNFQP (CD6, human, cytoplasmic region around Y629; also called phosphorylated CD6 Y629 peptide; source: synthetic peptide (Peptide Protein Research Ltd.)) [CD6 pY629 peptide (biotin-SSGEWpYQNFQP)]
